These results are taken from IntAct's records for PubMed 17803912.

The chains are these.
B1: Lymphocyte antigen 96 (Homo sapiens), Q9Y6Y9 (parent)
chain: MLPFLFFSTLFSSIFTEAQKQYWVCNSSDASISYTYCDKMQYPISINVNPCIELKRSKGLLHIFYIPRRDLKQLYFNLYITVNTMNLPKRKEVICRGSDDDYSFCRALKGETVNTTISFSFKGIKFSKGKYKCVVEAISGSPEEMLFCLEFVILHQPNSN

In the assay the parent is B1. To be noted: with tlr4_human TLR4, O00206.
Chain of tlr4_human TLR4, O00206 (O00206 whole entry): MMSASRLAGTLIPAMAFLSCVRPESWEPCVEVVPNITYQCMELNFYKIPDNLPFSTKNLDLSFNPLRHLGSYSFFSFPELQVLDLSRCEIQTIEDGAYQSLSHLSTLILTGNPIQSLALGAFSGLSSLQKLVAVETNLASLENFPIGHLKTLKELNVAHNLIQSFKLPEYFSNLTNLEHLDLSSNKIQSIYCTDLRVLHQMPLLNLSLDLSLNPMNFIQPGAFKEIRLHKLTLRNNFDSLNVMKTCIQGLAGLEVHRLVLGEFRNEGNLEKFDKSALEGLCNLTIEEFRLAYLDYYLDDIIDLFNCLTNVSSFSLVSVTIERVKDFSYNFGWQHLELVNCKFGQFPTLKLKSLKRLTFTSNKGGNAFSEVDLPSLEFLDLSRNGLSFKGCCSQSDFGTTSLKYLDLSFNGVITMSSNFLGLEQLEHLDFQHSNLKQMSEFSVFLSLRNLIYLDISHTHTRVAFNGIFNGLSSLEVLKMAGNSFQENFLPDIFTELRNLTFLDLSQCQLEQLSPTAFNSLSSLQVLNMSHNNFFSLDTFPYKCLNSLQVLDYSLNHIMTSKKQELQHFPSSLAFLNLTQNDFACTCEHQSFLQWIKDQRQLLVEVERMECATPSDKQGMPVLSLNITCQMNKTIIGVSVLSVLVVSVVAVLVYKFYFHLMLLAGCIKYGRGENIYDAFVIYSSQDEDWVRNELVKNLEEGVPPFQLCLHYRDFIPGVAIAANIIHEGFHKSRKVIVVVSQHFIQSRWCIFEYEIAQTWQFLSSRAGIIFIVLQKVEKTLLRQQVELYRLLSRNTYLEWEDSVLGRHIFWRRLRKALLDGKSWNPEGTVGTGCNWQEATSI
For the variant F126A, the “effect of a mutation on the interaction” value was “disrupting interaction”.

Consider H155A, for which the “effect of a mutation on the interaction” value is “disrupting interaction”.
